This is an account of results in paper PMC8511477 (Synthetic Biology, 2021).

By Km is commonly meant the substrate concentration at which the rate is half of its maximum. Usually kcat stands for the number of substrate molecules converted per active site and unit of time at saturation.

What all share (settings): 2.5 mM ATP, 0.5 mM CoA, 5 mM MgCl2, pH 7.5, 37 °C
In one data set the test system is T1, ArACS.
T1 construct: gene acs; C-terminal 6xHis (pET29b+), expressed in E. coli BL21*(DE3) delta-patZ, Ni-NTA purified; species only in supplement
The data set can be described thus: myokinase/pyruvate kinase/lactate dehydrogenase coupled NADH assay, […] nm. The class given is biochemical.

For another data set, the target named is T2, EcACS (Escherichia coli, UniProt P27550).
T2 construct: gene acs

Substrate in data set [1]: CC(=O)O
In words: purified protein.

Substrate in data set [2]: O=CO
The data set can be described thus: purified protein.

For the molecule `O=CO` [formate], the Km in the data set on ArACS was determined as 38.5 ± 19.3 mM.

With `CC(=O)O` [acetate], the km result at EcACS is given as “We assayed these homologs using formate as well as acetate, the likely native substrate”.

B1: MhACS (Marinithermus hydrothermalis DSM 14884) (protein)
chain: MERIEAVLKENRRFEPPEEFRKRARIQSEAEYEALYRESLEDPEAFWGRVAEELHWFEPWTQVLEWNPPHARWFVNGKTNLSYNALDRHVATWRKNKAAIIWEGEPGEERVLTYHDLWREVQRFANALKQLGVGKGDRVTIYMPMIPETAIAMLACARIGAVHSVVFGGFSANALAERIKDAEAKLLITADGGYRRGRVVPLKAQADEALAETPSVEHVVVVRRTGEAVPMQPGRDHWYHELVESVPDHCPPEVMDAEDPLFILYTSGSTGKPKGVLHTTGGYMVYTYLTTKLVFDLKDEDTYWCTADVGWITGHSYIVYGPLVNGATTLMYEGAPNHPEPDRFWRIVDKYGVTIFYTAPTAIRAFMKWGEAWPRKHRLDSLRLLGTVGEPINPEAWLWYHQVIGQGRCPIVDTWWQTETGGIMITTLPGAHAAKPGFAGKPFFGVAPEIRDAEGNRVETPEEGGYLVLTRPWPSMLRTVWGDPERYRRQYWSQYPDAYFTGDGARRDADGYYLILGRVDDVLNVAGHRLGTMELESALVSHPDVAEAAVVGRPHPEKGEAIVAFVTLKSHARPSEALREALKAHVANTIGPIARPDEIRFAEALPKTRSGKIMRRLLRQIAAGETEIKGDTSTLEDREVVEQLKRGE
As to B1, in “purified protein [1]”, the Km is recorded as 0.089 ± 0.060 mM and the kcat is 15.1 s⁻¹.

B2: EcACS (Escherichia coli K-12) (protein)
chain: MSQIHKHTIPANIADRCLINPQQYEAMYQQSINVPDTFWGEQGKILDWIKPYQKVKNTSFAPGNVSIKWYEDGTLNLAANCLDRHLQENGDRTAIIWEGDDASQSKHISYKELHRDVCRFANTLLELGIKKGDVVAIYMPMVPEAAVAMLACARIGAVHSVIFGGFSPEAVAGRIIDSNSRLVITSDEGVRAGRSIPLKKNVDDALKNPNVTSVEHVVVLKRTGGKIDWQEGRDLWWHDLVEQASDQHQAEEMNAEDPLFILYTSGSTGKPKGVLHTTGGYLVYAALTFKYVFDYHPGDIYWCTADVGWVTGHSYLLYGPLACGATTLMFEGVPNWPTPARMAQVVDKHQVNILYTAPTAIRALMAEGDKAIEGTDRSSLRILGSVGEPINPEAWEWYWKKIGNEKCPVVDTWWQTETGGFMITPLPGATELKAGSATRPFFGVQPALVDNEGNPLEGATEGSLVITDSWPGQARTLFGDHERFEQTYFSTFKNMYFSGDGARRDEDGYYWITGRVDDVLNVSGHRLGTAEIESALVAHPKIAEAAVVGIPHNIKGQAIYAYVTLNHGEEPSPELYAEVRNWVRKEIGPLATPDVLHWTDSLPKTRSGKIMRRILRKIAAGDTSNLGDTSTLADPGVVEKLLEEKQAIAMPS
For B2, the Km in the data set “purified protein [2]” is reported as 54.4 ± 14.9 mM.
